This data set can be described thus: soluble fraction after stress (log2 fold change); higher = more stays soluble; pooled small domains, quantitative proteomics. Conditions: stress: 50 degC. An outline of the steps:
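Quantitative proteomics served as the high-throughput read-out for pooled custom libraries of small protein domains. Each was stressed at 50°C. Aggregation propensity is expressed as the base-two log fold change in soluble protein after stress. A higher value means a larger share of the protein remains in solution.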
Consider “HMLLTHPKRVFTYELIMELVWNEDYTFYSKKAVSNHMSNLRKKLKVTPDALDYIKNIVGVGYKFEA”, for which the “soluble fraction (log2)” value is -0.759.
With “HMKTLDAFFDQARDAYKKLKKDGDIDNLKVLRNQLQTVRETQGDAVRKKSKEEYRRLVDIIDDIDGLLAAF” the figure was -0.102; with “HMSYTAYLSQELGDMSREIQSELLKKGYNGSSSFTIVRTYMGSSVKFSVYNANNGELITSKTINM”, -1.93.
As for “HMGDFNYVMPDFRGLEAHDVSSFLNRNGFLLRPTEHEVSFTQRPGLILMHYPEPGYPFSRSSPITLVVS”, the figure is -1.03; as for “HMVISLREINLIGVYGRPNARRALVRLSNGRYVRVEVGSDLDGGKVTAIGDEALNFVKRGRTYAIQLPA”, -1.55; as for “HMSMDYYNILGVNRNASTGEIKKAYKRASMQHHPDRGGNSDEFIKVQQAYDTLSDNHKRQAYDNP”, 0.0774.
Consider “HMQVTIGADLAEHAARLDVQISDVVKLIKSGVSEGEIKVGLTKLETRLAHPELALVENKLAYLKALIAES”, for which the “soluble fraction (log2)” value was -0.243.
In the case of “HMSLGSQEYSIGFRNGDSTYHYIDKALKELAYEGVIDELSTQWFGSSRAVDFPSQKDALSELGYIA”, the “soluble fraction (log2)” value was -0.0308.
Turning to “HMNKDEFLRRLEDALSGEVPASVIRENLNYYADYLSQELGKGRTMDEIIEEIGEPNIVARTIINSAEAA”, the “soluble fraction (log2)” value worked out at 0.0708.
With “HMSEILQLINKIDKKLEKGYTFANISRNHYEKIYKEEILNLYKTSKLKGEAEDSIKEVLESLLGDLRKP” the figure was 0.0222; with “HMNALTEAESKLLERMNKAGIHAEITTKKAAGILQRSENGARTVLNSLVKKGYLTVETNKAPYIYHLH”, -0.11.
Regarding “HMDYSWNFFIGFSVVDKVAGNLGTIEEIDDKTINTLFLVKNDDEDLIIPATEDFVEKIDAKKRILYLNLPE”, the “soluble fraction (log2)” value was -1.56.
With “HMDKQGGWLTMAEAAEKLGVTHHVIRRLIKEKILPAEQVMRHAPHQIRIVDLESDAVAEALRHR” the figure was -0.215.
As for “HMSKTQVKSVLDDIKGIGVVRRKALIKHFNDIEAIKAAQLAELKAVAGMDSKSAQSVYDFFHK”, the figure is -0.186.
As for “HMMTDAEKTFIFFSHLSSVEDHIAYGDKQFYMSLFWQHENKRELSSSQLYHLERLYNKYSMEEIEKKEEFS”, the “soluble fraction (log2)” value was -0.78.
With “HMARSKSRQSSVLESVPGLGPSRRRNLLRHFGGLQGVVKAGVEDLMAVRGISRTLAETVYDHLHPGS”, the “soluble fraction (log2)” value was -0.289.
As for “HMSKTDYKILYSDLNREDAKQLSLLLEDKKIPYQTSEDGKTIKIPEGMVNRFRMEVATMGVNF”, the figure is 0.00779.
Take “HMTIKLFPNPSTDFIRVSELSAKENYKIYTILGSEIKRGSVSNNETIDIRNLNSGVYLLKFDNGTTKKIVK”: the “soluble fraction (log2)” value was -0.886.
With “HMGVLDFSAQLLKHLEMNGGQTPLGDKSPAEEIYAVFGVSKKVFKKAVGDLYRKRLIEISSNGIRMTS” the figure was -0.968; with “HMVRSLADQVYERLRRNIVSGDLAPNARIVELDIAAQMGTSQGPVREALQRLEREGLVQRRAHSATFVTD”, -0.279; with “HMVLAEPLSERELDILRLLAAGDSNKEIAAVLYITEGTVKNHVTNILGKLDARDRTQAALRARELGL”, -0.801.
Consider “HMEALASESVKDKIRKIIDSEDPSRPMSDQRIKEMLKAANIDIARRTVTKYREAMNILSSTKRRQV”, for which the “soluble fraction (log2)” value is -0.272.
With “HMDKGEQILQQALDKLPPKQRQVFEMRYFDEMPYREIATITETSEGALKASYHHAVKKIQQYISHL” the figure was -0.397; with “HMDINNTNFSRDVDNLLQNEEFIKWRIFRTKEWEDYWENFRKENPHMEDALQEAISRFNAVK”, 0.156; with “HMGTITKRTNPSGAVVWRAQIRINKADMPTYSESKTFSKKSLATEWLKRREAEIEANPDLIL”, -0.348.
As for “HMESRTQVYDFYKDLFREKRRPLRAEEMLSALKSQRGIVGVNQYQIIEQHGIVRLSGSGRSALYWDTDLGS”, the figure is -2.74.
With “HMVPVQLTPRELQVARLAAHGASSPEIAAELRVSRRTVDNQLGRVYAKLGIAGRAELAAALSRLPVSV” the figure was -0.0808; with “HMVRQKYKSNFITVGDKSLTIHDWAQRLNLSQYALRNRYKEFGKEWVEKAIKTILETGDNTHIYK”, -0.847; with “HMIYRTTSVPIDNISTQKFNLQEGWIEMNKNEVEDFIRQKNLELVVTDSNVMLDKFALNGDPNKFKVFKY”, -0.094.
On to “HMETVPMIDLRGMTQEQAEKAIVGLGLTVGTVDHSSSDMPAGQVWFQSVEPKDEVAPGTKVNIIISTGS”, for which the “soluble fraction (log2)” value was -0.000277.
With “HMQYIINFEYSGMLLREYLRGVLGLSHGTLTALKKDPLGILLNGEHATVRAVLHAGDRLTLALE” the figure was -3.05; with “HMTIEEMAIENINFSTQLLYKAMKYNGVNTVGDLLEKARSKKDLLTMAYIGNKEAEEIIEKLSELGITI”, -0.23; with “HMGPFYFDQDGKAYSGLLNRNGEILYFADPFNAAVKNTTKTIDGKTYTFNQNGRATSIDGIPLEPP”, 0.142.
Turning to “HMILNWSEYTRSEIIELARDLSPDKYMIIDDINTYSKMKLLPSQAFIAEMFGSLRQFQKEAWGRE”, the “soluble fraction (log2)” value is -1.88.
As for “HMKTLSKEDIGFLSDEAVGEMRKAVANGEMLELRALIDQVGEKNPIVAEKLLTLVKQYDYENLNRVLE”, the figure is 0.0931.
With “HMDNLATRILKELNNNDGFLPLSDKSQPEAIYQAFGISKKSYKTAIGTLYKKRLITISENGIQLTD” the figure was -0.688; with “HMFDEVKDAARRLAALLDQAGGTLTLNDKSAPEEVAALTGMSKKVFKRALGHLMSRSEVVVADGRITKKD”, -0.289.
As to “HMQEERLTFDTLLGISGIGPRLALAVLSRFTPGSLAAAVDAGDTKAFSAVPGVGNRTASRIILELKGKL”, the “soluble fraction (log2)” value was -0.771.
With “HMYEIEDIKEKLLDLLANSKTGFSGLEISNRLGINRITVSKYLNIFSAEGLIKQKNIGNVIIWFVEDGIE”, the “soluble fraction (log2)” value is -0.203.
With “HMIGITTANLNVRTGTDTNYTSIAILPKGTKVNILEENVKPGWYKIQFDEIYAFVSSKYIKIQS” the figure was -1.12; with “HMARTTIATPWDKINDLLQGGLGNGDFGLIFGNPGGGKSWSLVALGGFAVKLGYNVIHYTLE”, -0.054; with “HMKEFIPPVLDDVLKFFSGSLLPDWENQGRLFFSHYNSQGWRKGTGVQVTDWDSLANKWILDEKIKRDARS”, -0.263.
“HMIPRNLEDLVRENQIGLVILKIVEIIGEDNIRDLDPETIYFINRILNELNLKKIRNNILSEALPPR”: the “soluble fraction (log2)” value was -1.31.
Consider “HMFLTDHEVSKVARKRAHAEYLSSLSWRQRTFGDHGERSKNFEAWYKEHSHLYETEKLYKELYKN”, for which the “soluble fraction (log2)” value is -0.567.
With “HMQFEIGDTVRVHVNIREGERERVQMFEGTVIAKRGSGVSETFTVRRVSYGVGVERVFPVNSPNV” the figure was 0.105; with “HMTMVKYRYLTDGELKEFEEEFKHFLIANGLHSEEWERLNNEDSNKAIEVVALFSNLILDKV”, -1.54.
For “HMLIDSEILKKTNKITIFLIYAFFSEYLINKEKKKILIGEYIKLSKDFLTIEEVKYFNHLLDDISK”, the “soluble fraction (log2)” value came to 0.0074.
Take “HMTPPPTNSREWMEWGISHGLDANLDRSGQVVFYTDDRVVADAAELSGADLERDNMGQFVIYTGAYDKG”: the “soluble fraction (log2)” value was found to be 0.0665.
As for “HMAREFPGTIIKRGSRGPDVRWIQQHIGVKLVDGVFGRGTERAVKQFQSRRRLKADGIVGRQTWAAIHN”, the figure is -0.999; as for “HMTSVAGIERFLASGAIKGMGAATAKLIVEHFGADTLNMLDMYPERLTEIKGIGPKKATAIIEGYRELS”, -0.751; as for “HMFHFELNAAKQALEDRKTIDRAKGILMRQRGMSEDDAYKLLRTTAMSQNRKVIDVAQALVTAADLL”, -0.0832.
With “HMQDTYQVKLLTNLNIRKSPNGTIVQKGGAKKGIIYTIVETSGTWGRLKSNAGWISVSDKYVTK” the figure was -3.43; with “HMQNPDHLLALAAAAQAAIELGRPDEAEAYYRHLVEVYGVEMASQKPEYLDHSGITNDLRNVAEGFLVG”, -0.746; with “HMSTPTVDTKTKLDLYNLLYKKDLNYLDAYNFVLDNFGSDNIDIMFKMLGLDFTNWVIENKPE”, 0.0375.
As for “HMDTEIGDILALRQIMELLDEKDRQLIIMRYFQGLTQSVTAKNLNMTQVQVSRREKKLLTFMREQLL”, the figure is -0.739.
“HMAFRWQQIADTITSMIANGSYPRGSRLPTEAALADSFGVNRHTVRRAVAALRDTGLVQPRQGAGVFVIG”: the “soluble fraction (log2)” value was -1.55.
As for “HMYHKKEKAQAANIEERIMILLSDGKHHHITEIKAIYVDEVITLNILEEMLAEEKVIIEGDMIMLVE”, the figure is -3; as for “HMAMYSREKLKKLREDRGLTQYELAKIAGISVVTLNKIESSDSAKPFVKTLNKIAQALGVGIDELS”, -0.127; as for “HMEVSTDADFEAVGIRAELIPILQKLGFTTVAQLKEVKATKLFNDIPGMRKKLKLDAVQNPTLQEIEGWLK”, -0.0529.
As for “HMQMMDATLKIPPSMGKLRGTLYELNSVTSEDVDENGQLALHVRLSSVDWQRLKKRFDSNLDELIVQKN”, the figure is -0.0668; as for “HMLHPLLWAVDEPTPVTVRTRPEYVPDVVRWLMQPESQREHDGVVDLRYTVTHRAAFRSRIYVLGTRVTIP”, -0.112; as for “HMEDVDTAALEKVIATAKGLNKNDYTATTWTTMQAALTNAEKALEAKKSQTSVDEAAKTLQAAIDGLKKAS”, 0.215.
“HMKPVTVINFVGMTEEKAMTEAEKLGLVVGASSSEYSDEPAGTVIRQSISVSTEAKTGDNIYFTVSKGPE”: the “soluble fraction (log2)” value was 0.163.
As for “HMAEAAVELSQQILARLLEAGGSLPLSDKSSPEDIHRLFGVSKRTFKKAIGGLYKKGLILIHPERIELP”, the figure is -0.588.
As for “HMSTVAETVYNEIRDDILYGELQPGVKLKLEALRERYSVGVNTLREVLNRLVASGFVFVEGQKGFRVV”, the figure is 0.0966.
With “HMNEISLKEITIEEDHPWRDKKIKELDLKEHILVAMIRRKDQDIIPNGETKIYKDDILVIYD” the figure was 0.144; with “HMQVIDNHWRPSRDALDILLRDGISEHFIEDAIPEFILYWRERGTQDSNWNSRFLQHIRLQWARYTNAV”, -0.433.
For the sequence “HMSKRIFPNEFQRNSPDAMVMLDKMNLSRINVDPLTKSLTLNGGGSVKTLLNGREVSAVEIAALSP”, the “soluble fraction (log2)” value turned out to be 0.0444.
As for “HMEALQKVSINYYDEGAGKQIAEVPLEVGAGDTEIALAVINKYMPAEYNLVSTDYQIRGGYVYVSVTPA”, the “soluble fraction (log2)” value was -0.072.

The record behind these values is the domain aggregation screens of Martell et al. (2025).
